One data set has as its target T1, RecQL4_N54 (human (Homo sapiens), UniProt O94761 1-54).
T1 sequence: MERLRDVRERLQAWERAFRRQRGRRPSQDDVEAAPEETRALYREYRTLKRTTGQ
Briefly: EMSA.

Data set [1] deals with GST-TopBP1 (a.a. 1233–1522) (human, UniProt Q92547 1233-1522). Briefly: SPR.
Chain of GST-TopBP1 (a.a. 1233–1522) (Q92547 1233-1522): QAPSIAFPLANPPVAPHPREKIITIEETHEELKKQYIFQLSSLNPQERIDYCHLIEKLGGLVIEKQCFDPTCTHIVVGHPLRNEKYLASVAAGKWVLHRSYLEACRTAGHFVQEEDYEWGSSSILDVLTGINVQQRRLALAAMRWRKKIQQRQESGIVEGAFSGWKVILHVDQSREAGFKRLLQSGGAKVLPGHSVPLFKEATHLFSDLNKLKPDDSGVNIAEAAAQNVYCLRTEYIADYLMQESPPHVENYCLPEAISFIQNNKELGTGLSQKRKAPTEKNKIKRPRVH

B1: M2-M4 Y (mixed)
DNA 1: GCTTGCATGCCTGCAGGCCAGCCTCAATCTCATC
DNA 2: ATCCTCTCTAGAGTCGACCTGCAGGCATGCAAGC
Take B1: in the data set with RecQL4_N54, the binding result is recorded as “binds”.

B2: RecQL4_N54 (domain or fragment, human)
chain: GSMERLRDVRERLQAWERAFRRQRGRRPSQDDVEAAPEETRALYREYRTLKRTTGQ
B2 had a Kd in data set [1] of about 70 µM.

B3: S4-M3 Y (mixed)
DNA 1: ATCCTCTCTAGAGTCAAGGTCGGAGTTAGAGTAG
DNA 2: CTACTCTAACTCCGACCGCTTGCATGCCTGCAGG
As for B3, the binding result in the data set with RecQL4_N54 was “binds”.

Source of the values: article PMC3458545 (Nucleic Acids Research, 2012).
